The results in this text go back to a protein production outcome set (Wang et al. 2014).

A short description of this series: label from the status in PepcDB records.
As to “MIKPTPVAGTSLDRVDGVAKVTGQARYAGEYPEVGLLHGSVVSSTIARGRVLNIDSTQAMRVPGVIAVLDHGHRPHISSYDDDYSDADAAQGAPFRPLFDDRVLYNGQPLALVVAQTLELARYAGSLIRIEYAEEAHQTDLGACQQSHAAPAETPPPRGDFAAQFARAPVQVDATYLTANEYHNPMEPHASTVLYKGDGTLEIHDKTQGTQNCQDYLHKVFGLPKANIRVRAAFVGGAFGSGLRPQYQLPLAVMAALHLQRSVRVTLTRQQMFTFGYRPRTEQRLRLGADANGQLLAIAHDALGQTSRFEDFTEHVVEWSGMLYQCDNVALSYRLASLDVYTPLDMRAPGAASGMIALECAMDELACAAQIDPLDLRRRNFAASNANEGKPYSSKELLTCYRQGAERFGWQNRNPQPRSMRHGNQLVGWGMAGGVWEAMQMKASAKARFDAQGHLTVSSATTDIGTGTYTVMTQIAADAAGARVQDVTFVLGDSSLPTAPLQGGSFTVSSVGSAVRQACQVLRTKVLEHARRMYPQVASTAREQIIFADGYLHAGSHRLALADIIASAPEGEFEVQIDAEPGARRQPFSTATHSAVFAEVHVDEDLGTIKVVRVVSAVAAGRVINPKTARSQILGGVVWGVGMALHEAALTDHRLGRIVNHNLAEYHIPVNADSGDIEVIFVEEHDDIVNELGSKGVGEIGVVGVAAAVANAVYHATGKRVREFPITLDKLLKDNSQV”, the protein production entry is recorded as “failed”.

Consider “MIKRILTVLLLFPTLVCAQINTERVMTIARNALYFEDYVLSIQYFNQVINAKPYLYEPYFFRALAKVNLEDYQGAEADCDEAIKRNPFVVGAYQVRGLARIRQSKFDGAIEDYQKALHYDPENITLWHNLTLSHIQKKDYDAAKEDLESLLKVSPRYTRAYLMRGEVSLQQKDTVAALKDFNTALELDKYDPDAWSARAIVRLQQSNYAEAESDLDRAIHLSAKNAGNYINRALARFHQNNLRGAMSDYDLALDIDPNNFIGHYNRGLLRARVGDDNRAIEDFDFVIQMEPDNMMAIFNRALLRAQTGDYRGAIKDYTTVINQYPNFLAGYYHRAEARKKIGDKKGAEQDDFKLLKAQLDKQNGGTNKDVAQNQNKDKENQSGENGDESEEGKTRKKSDKNMNNYRKIVIADDSEADQRYTSDYRGRVQDKNVNIKLEPMFALTYYEKSSEVKRSVNFHKFIEDLNLSNVLPKRIRITNMEAPLTEEQVKFHFALIDAHTSAIVDDDKSAPKRFARAIDFYLVQDFSSAVADLTQAILLDGDFFPAYFMRALIRCKQLEYQKAEQAAEADMPSGAAVKEVSAVDYEVVRKDLDKVITLAPDFVYAYYNRANVAAMLKDYRAAIVDYDKAIQLSPDFADAYFNRGLTHIFLGNNKAGISDLSKAGELGVVSAYNVIKRFTDQTE”, for which the protein production entry is “failed”.

For “MIKYLIVMLIPFVIVYLLMPKFIEFANEKGFVDKPTGRKKHDKLTPLIGGVVMYIGFFATYLFGIDSTRQLSQTFIIFIASTLVIIIGVIDDYYKGKGKEFPIYPRVIIQILAATMVFKAGIVFRGITNPFTGEFTQFSGWIQYILTITWIFGVTTVINWSDGMDGLAGSISIISAMTMFVVALAKGQFNSAYMSITLVGSILAFLRYNRHPARVFMGDSGANFLGFILAIIALEGAFKQATALSILVPVLALGVPIFDNIFVIFRRFQSGKPVYEADRSQIHYRLQERGMSVKQIVSYICILSGCLSLVSLLIIMIIL”, the protein production entry was “failed”.

Consider “MILAILQARMSSTRLPGKVLMPLQRQPMIVRQIERVARSKRIDKLVVATSDRPEDDAIEAAVRREGIAVFRGSLDNVQQRFIGALDAHPADHVVRLTADCPLADPTLIDATIDLCLSKGADYVSNTPEGHAHPKGTDVEVMTAAALRRAAAEATTKEAFEHVTWDLWNQPQRWTCAWLPCFPDQGAVRWTVDRPDDYAFVAAVYDALYPANRAFTSDDIRAFVAGRPDLQDYGGDRRALEHHHHHH”, for which the protein production entry is recorded as “failed”.

As for “MILFADYNTPYLFAISFVLLIGLLEIFALICGHMLSGALDAHLDHYDSITTGHISQALHYLNIGRLPALVVLCLLAGFFGLIGILLQHACIMVWQSPLSNLFVVPVSLLFTIIAVHYTGKIVAPWIPRDHSSAITEEEYIGSMALITGHQATSGNPCEGKLTDQFGQIHYLLLEPEEGKIFTKGDKVLIICRLSATRYLAENNPWPQIL”, the protein production entry was “failed”.

“MILIKKFATVASGTLMSRIFGFVREMLMAAALGTGPVSDAFNAAFRFPNTFRRFFAEGAFNAAFVPLFAKRITEDGQETACKFAEEVFGVLFSLLLLLTIAMELSMPFLVRTIIAPGFAEDATKFNATIHFTAIMFPYLTCMSLAAMMGGMLNALRRYFIAAIAPLFLNIILISVLAYAWIYQLDTWHIGLNLSWGVLAAGLLQLTLIAAALRQSGMKIFLRRPRFSSNVRKLLTLAFPAAITGGITQINLLINTNIASSQSGAVSSLMYADRLYQLPLGVIAIAIATVLLPELTRALRSKNHKETHNLQNRSIELTLLLTLPASVAFLILSTPIVSLLFERGQFTSLSTHYVAQLLKLYGLGLPAFVLIKIFIPNFFAHEDTKTPMIITGICVFINISLALILFPILSARGIVIAEITSGWMNALLLWTILIQRGYWKYDIQLIKRITCLIITTLLNTIALYYVFDVIDFLSFPLSSQASFFLRASTLAGIMVAILLVHCFAYFLLDTRSFFLTLKNFKKRL”: the protein production result is “failed”.

As for “MILKTKLFGKVYQFTSVKEVLAKANEEKSGDKLAGVAANSAEERVAAKVVLSELSLNDLFNNPVVDYDEDEVTRIIIDQVNMRIFESIKHWTVAELREFILSSETTDFDIKRISRGLTSEMIAAVCKLMSNMDLIVGAKKINIEKTANTTIGRPGTFSNRLQPNHPTDNVDGIMASVMEGLSYGAGDALIGLNPVDDSTESVKRILNKFEEFRSEWEIPTQTCVLAHVTTQMEAMRQGAPTGLVFQSIAGSEKGNTAFGLNAEILAEAQDLALHSGQAAGPNVMYFETGQGSELSSEANFGADQVTMEARCYGLAKKFDPYIVNTVVGFIGPEYLYDSKQVIRAGLEDHFMGKLTGISMGCDVCYTNHMKADQNDMENLAMLLATAGCTYIMGIPHGDDVMLNYQTTGFHETATIRETLGLRPIKEFEEWMEKMGLMENGKLTSRAGDASVFIK”, the protein production result is recorded as “not failed”.

With “MILNLDTNIFNHGLSRHNILAFSQGFPIGLPCRNWIEVGLRLRLRLLLELAVGNFPQGFKIHLSGSFQAVRLALFSSFTSLRTDELLLIETRPSYLSSVQVWGKGRPLLLLLTKREQPALQANREPPARFESLRAGKQEEADRAKASPLLASALPEAVEVGTRSRRSRGSSCGFRVKLAHCQKANRSSYLDQRTLIPGRQQGLRVEGMNQVSWLRIGGMGVRSVPSSPSPRLRLLETGDRVFLRRLAASPFNKGFQWQQTAPQDEAKNGVGGLPVVRASKWLAGPRKHNERDDRSSTRPEIDVLLP”, the protein production entry is “failed”.

As to “MILNRQTVALMTAGLLAFNSCSLKQMVKMAKDQELTVTPSPLEVHGDSVAFDISATLPVKMLKKNKIYSVSTFYKSGDNKVELGSFDFVSTDYPDAKTTAPQIKKHQAFAYKPEIGNGDLLAVGTASNLDKTKTKSTEEFPIAKGLITTSRLVKDYSYVAYADHGYNNKEELIASTVNFYFEQGKSVLRSSEMKGQNAKFLDAFITAKHVTRTISVIGQHSPEGTETKNTNLANERSVVIEKYVKARMKHFKQDSLVNTIQFVTKGDIKDFEPMKAEIAKSTKLTPEQKSELLNIIAGSGDFTSKQQQIEKLPYYNKSVLAQLYPSLRTARTEIWTVKPKKTDAQISLLAGQITSGKVSVDTLSVEELGYAGTLTPILSEKAAIYEALAKKTDNWVAYNNLGAVYVEMAKVEVDQNKKTELVNKAINTLEMSIKKQDNGEAHVNLASAYILSGVKTSARDEANKAVASNASDAVKKGANGILGTVDIKDGKYELALQDFSKSNDSIQVKFNTALASLLKKDFNTAKAGFANYTAAAPNDAAGFYLAAVTAARLKDEATLTTNLKKAKQLSPKFGERAVSDMEFYDYWNSDNFKNALK”, the protein production entry is “failed”.

In the case of “MINDALKPYLEEKIESAKKTVPSFALEELKQKIISSPIQFGKSDIDDLVANLLKRYEQTKENSLIGKIDSIFKEISDMEKVMSGKAAEPAQPAEKPKKKAKLEAIGDDVVSIMVSLRWLEFLLDNYGPENTLDVLDYYESLGWISSTVKEQMMKYAKMTGVMNPAQEYKIKPSIQDHIINMLFIEKLRGEEINRDLIEALEREFRTIRKGVDELYGI”, the protein production entry is listed as “failed”.

On to “MINLWKNGYDMVYGIRNRTTESWLKRVLTQAYYRILNLSSPIDIPESAGDFRLLDAKVVEAIKQLPEKNRYMKGLYAWVGFKSIGINFSEQERQHGHSSFNLKSLFNLAMSGLTGFSDLPLRVCIYLGAILALGAMSYGVWIIIKTLIEGISIPGWATLAAGMTLLGGIQLLFIGILGEYIGRIYAEVKNRPKYIISTEHSRTKQEHSIAHQENTFSSF”, for which the protein production result was “failed”.
